Consider six molecules from article PMC8568338 (Cell reports, 2021).

Read-outs that look alike come from different tables or passages of the source.

Series [1] addresses T1, VP40-WT (Δ43, HIS-tagged), purified RNA-free monomer/dimer (UniProt Q05128 44-326). Briefly: native MS.
Series [2] addresses T1, VP40-WT (Δ43, HIS-tagged), purified ….
Series [3] has the same target. As to the kind of experiment: 30 mM NaCl.
Series [4] has the same target. As to the kind of experiment: blue native gel.

B1: S2R DNA (ssDNA)
DNA: TAAAATAATTTTATTGAAT
On to B1, for which the binding result in series [1] was “binds”.

B2: AGGGG DNA (ssDNA)
DNA: AGGGG
On to B2, for which the binding result in series [2] is given as “binds”.

B3: HSP RNA (ssRNA)
RNA: UACAUUCCCAGCCUUUGUAGUGUUUUCGCCAAGCA
Take B3: in series [3], the binding result is listed as “binds”.

B4: A36 DNA (ssDNA)
DNA: AAAAAAAAAAAAAAAAAAAAAAAAAAAAAAAAAAAA
For the molecule B4, in series [4], the binding result was “no binding”.

B5: HSP DNA (ssDNA)
DNA: TACATTCCCAGCCTTTGTAGTGTTTTCGCCAAGCA
Take B5: the binding result in series [2] is recorded as “binds”.

B6: HSP18 DNA (ssDNA)
DNA: CAGCCTTTGTAGTGTTTT
Turning to B6, the binding result in series [2] is reported as “binds”.
